Experimental data as given in the DeepSol protein solubility set.

Assay: soluble on expression in E. coli; label from the status in PepcDB or PDB records

| Sequence | soluble on expression in E. coli |
| --- | --- |
| MSLTAIKHVAISCRRALTKCAKIGHTTVSVSRSLRKLSPTAFKTLRQAIAKVGHLNIMGQKIRLNDRELAANKVIMAVKKEEISKGILDPSQFTPGQHIFKTLAEVQKSPIFNLIKGMPKGGALHAHDTALCSTDYLISLTYRKNLWICTAEEGCKAIAFRFSKEEPKEKPVKESIWEPMEEFRERRGEENVTKYLTRRFSMYPFSKFISNNQAWAHFMGIFILLDGLLCHAPIWAEYYYNALKEFAEDGVQYLELRSLLPPLYCIDGDMLTIRDTVAIYNSELERFRADHPDFIGSKLIYAPLRGVEPSVVEQYVKTAVELNKEFPNFMVGFDLVGQEELGRPLIDFVEPLLKMPEHINFYFHAGETNWFGSPIDENLVDAILLGTKRIGHGYALTKHPMMMRLAKLLGIAIEVCPVSNQVLQLGVDYRNHPAALLLAANVPIVISSDDPSFWHCAPLSHDFYFAFLGIAPMKADLRFLKSLAINSIRYSALVGEEKRVGYRKWQEKWDKWIDDVVEHKYCEGHHHHHH | not soluble |
| MEKLAAKVLENFDFLKKLLRDRAECGESEITIYDDPVTIVVKRDRIDFFINEEYHGSVGVGFNTLSDEIREEARLWLEGLAGMKFKRYAVRR | not soluble |
| MSFYSAHQLALALEGLQRALDEIGIYSDILEDALLIACNVPVAEKTSILNDFQRADTINYGGLAAAIRANLAPDVCERRITEFQKKYAHGTDDQRLELLSDESVWRLEAYEAFADAEPLSTLEKIRLGVIGGPIDSIDPNWPLRKIAPERFLNDRWSRAVHDPRRIRRKIIGHRLPYRTKAEPDVPYGIPKRARLAARENSGPVRAPPLLGGAHPGQFRARGPAGVGVVSRHTRQFGAARGVLRGPTGNRVVPLFPVQIRARPPAPSQTIIRVQETERVKLEPTDNSYEEQKPPLLEN | not soluble |
| MPILQELRLGKRISRDISLADLYQEWIELKILPSSRSEETKKKYLLRKNTIERLFGNKKVTQIRASEYQRIMNKYGQTVGRNFLGRLNTGIHQSIQMAIADKVLIDDFTQHVELFSSKEQQMTLEHHHHHH | not soluble |
| MASPVIYQAEDAIIYNAILETVNAGYTGSCYVNYHNEVGGYIEWNVNAPSSGSYALIFRYANGTTANRPMRITVNGNIVKPSMDFVSTGAWTTWNEAGIVANLNQGNNVIRATAIASDGGPNVDYLKVFSANAFQPVSLEHHHHHH | soluble |
| MGSDKIHHHHHHMSEPVIKSLLDTDMYKITMHAAVFTNFPDVTVTYKYTNRSSQLTFNKEAINWLKEQFSYLGNLRFTEEEIEYLKQEIPYLPSAYIKYISSSNYKLHPEEQISFTSEEIEGKPTHYKLKILVSGSWKDTILYEIPLLSLISEAYFKFVDIDWDYENQLEQAEKKAETLFDNGIRFSEFGTRRRRSLKAQDLIMQGIMKAVNGNPDRNKSLLLGTSNILFAKKYGVKPIGTVAHEWVMGVASISEDYLHANKNAMDCWINTFGAKNAGLALTDTFGTDDFLKSFRPPYSDAYVGVRQDSGDPVEYTKKISHHYHDVLKLPKFSKIICYSDSLNVEKAITYSHAAKENGMLATFGIGTNFTNDFRKKSEPQVKSEPLNIVIKLLEVNGNHAIKISDNLGKNMGDPATVKRVKEELGYTERSWSGDNEAHRWT | soluble |
| MAHHHHHHMIGGQHTKERLSERLQDCQNQPKNRGYLPGTKLLTGGYSTRTLQGNWAEERMDAGYYDGEAVFPTHLARAWTTDYRTMTSNVSGSLTRPVFDQATLMDIVDHKHRSYPAHQPYLDQQRDEVMQERFKTTTRTSYINPEERKREAQLHIPPVIGRTPTAQARAVILRIQRQLLLSRHGESAFPGNILRQIRLTLQRNDTAGEGMLTVEEAEKGFEEAFLVVSRPECVALVRAFDLKEDGTISIAKIMEELRGELRDRRYSLVEKVYEMLKGFSPDGIVRLQRLAELVDVDSMNAVMNGKVTSSLAHDAFVEQWDLPIDSYISFENFLLYFMDASFEIESDQEFEVFMRNVWHLSGGNGKSMNTSCRRVRVVHRNGRMSTQEVKNDLCIKDSDPNLQERIIANLASWGIKDVARVEMLPRNL | not soluble |
| SEDNQRSRFRKICVFCGSHSGHREVFSDAAIELGNELVKRKIDLVYGGGSVGLMGLISRRVYEGGLHVLGIIPKALMPIEISGETVGDVRVVADMHERKAAMAQEAEAFIALPGGYGTMEELLEMITWSQLGIHKKTVGLLNVDGYYNNLLALFDTGVEEGFIKPGARNIVVSAPTAKELMEKMEEYTPSHMHVASHESWKVEELGDYPGQENKPQ | soluble |
| MSLKLYYCRGACSLVVRIILNDLGLNFQDEEVDLKVKKTAGGDDFFKINPKGAVPTLVLDNGDILTENQVILQYLADTTPGQKLLAAVGESKRYHTLEWLNYISTELHKSLGMFFNPTVSEEIKSKILTPLVMTRFAYTNTRLEKGSYLMGNEFSLPDAYLFVMVSWAKYFKLDLSQFEHLTKFMDLMLARSSVAKSLQQEKLEGHHHHHH | soluble |
| MASHIVGYPRMGPKRELKFALESFWDGKSTAEDLQKVSADLRSSIWKQMSAAGTKFIPSNTFAHYDQVLDTTAMLGAVPPRYGYTGGEIGLDVYFSMARGNASVPAMEMTKWFDTNYHYIVPELGPEVNFSYASHKAVNEYKEAKALGVDTVPVLVGPVSYLLLSKAAKGVDKSFELLSLLPKILPIYKEVITELKAAGATWIQLDEPVLVMDLEGQKLQAFTGAYAELESTLSGLNVLVETYFADIPAEAYKTLTSLKGVTAFGFDLVRGTKTLDLVKAGFPEGKYLFAGVVDGRNIWANDFAASLSTLQALEGIVGKDKLVVSTSCSLLHTAVDLINETKLDDEIKSWLAFAAQKVVEVNALAKALAGQKDEALFSANAAALASRRSSPRVTNEGVQKAAAALKGSDHRRATNVSARLDAQQKKLNLPILPTTTIGSFPQTVELRRVRREYKAKKVSEEDYVKAIKEEIKKVVDLQEELDIDVLVHGEPERNDMVEYFGEQLSGFAFTANGWVQSYGSRCVKPPVIYGDVSRPKAMTVFWSAMAQSMTSRPMKGMLTGPVTILNWSFVRNDQPRHETCYQIALAIKDEVEDLEKGGIGVIQIDEAALREGLPLRKSEHAFYLDWAVHSFRITNCGVQDSTQIHTHMCYSHFNDIIHSIIDMDADVITIENSRSDEKLLSVFREGVKYGAGIGPGVYDIHSPRIPSSEEIADRVNKMLAVLEQNILWVNPDCGLKTRKYTEVKPALKNMVDAAKLIRSQLASAK | soluble |
| MGHHHHHHSHMDLSYALETVLNKQFPSSPQDVLGELQFAFVCFLLGNVYEAFEHWKRLLNLLCRSEAAMMKHHTLYINLISILYHQLGEIPADFFVDIVSQDNFLTSTLQVFFSSACSIAVDATLRKKAEKFQAHLTKKFRWDFAAEPEDCAPVVVELPEGIEMG | not soluble |
| MAGLGELERAVMDHLWSTSEPQTVRQVHEALAARRELAYTTVMTVLQRLAKKHLVIQQRDDRAHRYLPVHQREELVASLMVDALQQADKSGSRAAALVHFVGQVGADEADALREALAALEAKERSTGDNQSGTVRAG | not soluble |
| MTQVTVKELAQVVDTPVERLLLQMRDAGLPHTSAEQVVTDSEKQALLTHLKGSHGDRASEPRKITLQRKTTTTLKVGGSKTVSVEVRKKKTYVKRSPDEIEAERQRELEEQRAAEEAERLKAEEAAARQRAEEEARKAEEAARAKAAQEAAATAGAEPAVVADVAVAEPVAKPAAVEERKKEEPRRVPKRDEDDDRRDRKHTQHRPSVKEKEKVPAPRVAPRSTDEESDGYRRGGRGGKSKLKKRNQHGFQNPTGPIVREVNIGETITVAELAAQMSVKGAEVVKFMFKMGSPVTINQVLDQETAQLVAEELGHKVKLVSENALEEQLAESLKF | not soluble |
| GPGSMTEHENTPRLELEAALGYSGNLPGSLVAHPDQQHLLYALGACIVIRDANDAESSEFFYGHNDKISCLTVSVSGRYVASGQVTHPGFQADVCIFDFAERRLIHRMLLHKVKVQALAFSLDEQYLASVGGPDDNTVVLWDVKTGRPLCGAPAHHTETKAIAFFNNNSEKLITGGVGSLLVWTVDLEQRKMNSVDINMGNMRRSVQTISIEKTDKYVYCGTTSGDVICAQLQQANVFKMQGPQKKLSGGILSTILTNTGDVLVGSGAGELQLLSKINLTVQNSATVNGGVTALALMGDNYYVGTKTSNLYFVNGGNFMTRLRLTCHSEAVQDVVFPHGFSSVFATCCDTDIRVWNANSCTELLRIEVSNRTCNCLQFSRDGSLIISGWSDGRIRAFGPQSGKLVFSVADAHKVEQGSRSHKVGGKVGVTSVCADNAGHRIITGGSDGLVRVWAIRGATCTLEASMKEHKAAVNAIVISHDDTECVTASDDGSCIVWDLTRYLRRNIMYRQTYFRALEYYVDDSQLITCGSDKCIVYWDSVDCHAIREVCGSRTAELNSLSLSPDGRFFVTGGNDRIVKVWDYDRGECIAVGLAHSCSITKVRVSPDGKKIVSVGDEGAVMVWNIAELAIEGL | not soluble |
